Assays:
[1] = system: AncSZ; experiment: phosphorylation enrichment, bacterial display (enrichment ratio); higher = better substrate or ligand; peptides without Tyr show the background
[2] = target: EPHB1 (UniProt P54762); experiment: as above
[3] = target: EPHB2 (UniProt P29323); experiment: as above
[4] = target: FGFR1 (UniProt P11362); experiment: as above
[5] = target: FGFR3 (UniProt P22607); experiment: as above
[6] = system: Fer (mouse); experiment: as above
[7] = target: Fes (UniProt P07332); experiment: as above
[8] = target: Fyn (UniProt P06241); experiment: as above
[9] = target: Hck (UniProt P08631); experiment: as above
[10] = target: Jak2 (UniProt O60674); experiment: as above
[11] = target: MERTK (UniProt Q12866); experiment: as above
[12] = system: c-Abl (mouse); experiment: as above
[13] = system: c-Src; experiment: as above
[14] = target: Grb2 SH2 (UniProt P62993); experiment: SH2 binding enrichment of the phosphorylated peptide, bacterial display (enrichment ratio); higher = better substrate or ligand; peptides without Tyr show the background
[15] = target: SHP2-C SH2; experiment: as above
[16] = target: c-Src SH2; experiment: as above
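Throughout, for SH2 binding enrichment of the phosphorylated peptide, bacterial display: peptide library displayed on the E. coli surface as eCPX fusions, selected cells deep-sequenced, score is each peptide's frequency after selection divided by its frequency in the input.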
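Throughout, for phosphorylation enrichment, bacterial display: 11-residue human phosphosite peptides and single-mutation variants displayed on the E. coli surface, counted by deep sequencing, each peptide's frequency after selection divided by its frequency in the unselected input library; frequency after pTyr selection over input frequency; kinase dosed for 20-30% of maximal phosphorylation in three min.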

FGFR3, sequence (P22607 whole entry, looked up): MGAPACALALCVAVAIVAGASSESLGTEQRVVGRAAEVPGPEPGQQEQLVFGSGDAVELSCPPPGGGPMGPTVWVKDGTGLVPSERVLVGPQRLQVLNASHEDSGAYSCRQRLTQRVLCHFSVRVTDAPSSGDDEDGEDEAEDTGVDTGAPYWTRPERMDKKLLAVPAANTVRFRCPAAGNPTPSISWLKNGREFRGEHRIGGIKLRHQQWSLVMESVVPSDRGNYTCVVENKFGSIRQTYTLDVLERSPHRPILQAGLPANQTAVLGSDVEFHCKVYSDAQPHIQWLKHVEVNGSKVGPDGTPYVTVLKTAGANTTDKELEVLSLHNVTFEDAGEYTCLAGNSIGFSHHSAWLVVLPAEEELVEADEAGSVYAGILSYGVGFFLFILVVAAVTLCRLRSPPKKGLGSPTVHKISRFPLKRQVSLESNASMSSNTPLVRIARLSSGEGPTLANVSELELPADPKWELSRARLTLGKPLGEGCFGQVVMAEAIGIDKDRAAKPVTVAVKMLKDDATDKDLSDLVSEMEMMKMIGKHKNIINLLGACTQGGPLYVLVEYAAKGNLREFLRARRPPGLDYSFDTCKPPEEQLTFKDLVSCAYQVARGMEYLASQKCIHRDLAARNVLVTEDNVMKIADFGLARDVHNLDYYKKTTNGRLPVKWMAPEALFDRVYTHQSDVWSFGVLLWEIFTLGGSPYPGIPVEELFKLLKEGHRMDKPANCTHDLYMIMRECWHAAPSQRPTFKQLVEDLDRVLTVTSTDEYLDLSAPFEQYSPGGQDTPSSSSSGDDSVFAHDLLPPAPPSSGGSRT
Grb2 SH2, sequence (P62993 whole entry, looked up): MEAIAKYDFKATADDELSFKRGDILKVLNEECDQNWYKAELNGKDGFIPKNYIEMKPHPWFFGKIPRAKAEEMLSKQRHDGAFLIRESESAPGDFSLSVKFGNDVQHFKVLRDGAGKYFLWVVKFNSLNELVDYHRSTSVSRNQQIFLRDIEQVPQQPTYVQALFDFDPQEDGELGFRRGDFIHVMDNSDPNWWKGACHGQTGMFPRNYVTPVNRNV
Fyn, sequence (P06241 whole entry, looked up): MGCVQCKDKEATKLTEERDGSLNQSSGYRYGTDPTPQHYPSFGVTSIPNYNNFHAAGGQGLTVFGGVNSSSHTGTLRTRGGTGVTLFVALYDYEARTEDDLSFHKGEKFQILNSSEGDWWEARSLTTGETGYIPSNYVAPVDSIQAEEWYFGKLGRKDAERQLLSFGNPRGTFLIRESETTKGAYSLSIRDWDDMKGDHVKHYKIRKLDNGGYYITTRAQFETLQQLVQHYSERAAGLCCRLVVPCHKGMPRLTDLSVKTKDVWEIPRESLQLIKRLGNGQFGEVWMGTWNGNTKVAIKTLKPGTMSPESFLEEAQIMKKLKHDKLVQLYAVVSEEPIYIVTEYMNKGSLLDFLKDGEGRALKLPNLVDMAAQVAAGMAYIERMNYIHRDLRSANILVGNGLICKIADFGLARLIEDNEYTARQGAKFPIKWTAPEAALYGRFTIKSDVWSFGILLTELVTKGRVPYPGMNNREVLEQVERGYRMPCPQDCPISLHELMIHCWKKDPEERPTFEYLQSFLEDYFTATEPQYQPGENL
Jak2, sequence (O60674 whole entry, looked up): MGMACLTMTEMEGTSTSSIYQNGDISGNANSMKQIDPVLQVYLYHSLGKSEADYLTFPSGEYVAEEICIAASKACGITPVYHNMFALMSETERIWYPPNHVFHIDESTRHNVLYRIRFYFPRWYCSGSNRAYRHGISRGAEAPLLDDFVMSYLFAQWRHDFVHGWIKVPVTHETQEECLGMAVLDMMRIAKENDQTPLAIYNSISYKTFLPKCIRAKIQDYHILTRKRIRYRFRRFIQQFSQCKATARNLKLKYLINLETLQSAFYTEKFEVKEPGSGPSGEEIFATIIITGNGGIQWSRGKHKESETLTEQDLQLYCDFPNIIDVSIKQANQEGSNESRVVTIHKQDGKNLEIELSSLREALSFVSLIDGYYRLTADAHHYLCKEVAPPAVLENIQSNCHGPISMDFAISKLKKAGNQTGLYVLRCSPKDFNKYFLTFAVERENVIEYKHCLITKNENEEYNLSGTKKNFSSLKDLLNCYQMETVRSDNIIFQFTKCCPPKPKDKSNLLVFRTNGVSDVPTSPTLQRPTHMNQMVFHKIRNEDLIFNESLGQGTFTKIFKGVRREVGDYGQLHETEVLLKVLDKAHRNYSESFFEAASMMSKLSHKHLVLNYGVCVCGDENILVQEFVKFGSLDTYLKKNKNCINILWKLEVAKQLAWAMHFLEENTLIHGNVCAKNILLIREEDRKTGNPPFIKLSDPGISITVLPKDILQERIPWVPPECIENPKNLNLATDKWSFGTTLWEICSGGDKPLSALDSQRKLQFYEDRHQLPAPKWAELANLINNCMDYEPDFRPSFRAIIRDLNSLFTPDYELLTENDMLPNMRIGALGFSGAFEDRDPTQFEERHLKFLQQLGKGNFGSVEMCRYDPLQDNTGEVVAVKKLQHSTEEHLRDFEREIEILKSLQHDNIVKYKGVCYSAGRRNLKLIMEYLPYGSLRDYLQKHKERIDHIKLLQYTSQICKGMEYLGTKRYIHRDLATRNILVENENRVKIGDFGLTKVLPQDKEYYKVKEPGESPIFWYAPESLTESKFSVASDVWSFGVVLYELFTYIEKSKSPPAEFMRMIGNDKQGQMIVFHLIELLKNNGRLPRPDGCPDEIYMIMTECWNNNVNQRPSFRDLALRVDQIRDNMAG
MERTK, sequence (Q12866 whole entry, looked up): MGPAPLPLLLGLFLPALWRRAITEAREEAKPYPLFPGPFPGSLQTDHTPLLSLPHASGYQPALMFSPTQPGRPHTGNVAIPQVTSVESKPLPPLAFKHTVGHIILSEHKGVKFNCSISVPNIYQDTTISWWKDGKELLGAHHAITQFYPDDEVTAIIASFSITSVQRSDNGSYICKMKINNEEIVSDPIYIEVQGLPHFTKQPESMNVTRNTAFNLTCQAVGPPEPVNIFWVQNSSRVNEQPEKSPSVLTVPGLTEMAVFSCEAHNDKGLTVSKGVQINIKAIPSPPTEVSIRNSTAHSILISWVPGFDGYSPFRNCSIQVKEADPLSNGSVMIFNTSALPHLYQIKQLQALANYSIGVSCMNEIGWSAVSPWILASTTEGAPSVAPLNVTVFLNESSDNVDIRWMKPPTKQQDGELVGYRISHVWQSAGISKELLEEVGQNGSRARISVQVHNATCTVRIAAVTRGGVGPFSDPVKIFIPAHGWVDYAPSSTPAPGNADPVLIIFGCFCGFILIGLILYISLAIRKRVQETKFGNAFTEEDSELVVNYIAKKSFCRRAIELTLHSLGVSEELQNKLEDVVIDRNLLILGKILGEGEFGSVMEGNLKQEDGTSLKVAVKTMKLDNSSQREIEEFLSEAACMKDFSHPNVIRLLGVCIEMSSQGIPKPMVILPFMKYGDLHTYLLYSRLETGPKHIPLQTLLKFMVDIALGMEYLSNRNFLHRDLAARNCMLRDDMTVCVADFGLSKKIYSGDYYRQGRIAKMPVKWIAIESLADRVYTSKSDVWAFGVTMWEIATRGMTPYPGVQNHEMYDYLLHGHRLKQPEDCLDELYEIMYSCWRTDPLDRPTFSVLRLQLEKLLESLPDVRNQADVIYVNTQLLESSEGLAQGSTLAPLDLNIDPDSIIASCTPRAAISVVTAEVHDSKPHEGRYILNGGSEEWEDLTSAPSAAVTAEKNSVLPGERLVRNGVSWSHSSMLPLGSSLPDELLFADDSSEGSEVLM
EPHB1, sequence (P54762 whole entry, looked up): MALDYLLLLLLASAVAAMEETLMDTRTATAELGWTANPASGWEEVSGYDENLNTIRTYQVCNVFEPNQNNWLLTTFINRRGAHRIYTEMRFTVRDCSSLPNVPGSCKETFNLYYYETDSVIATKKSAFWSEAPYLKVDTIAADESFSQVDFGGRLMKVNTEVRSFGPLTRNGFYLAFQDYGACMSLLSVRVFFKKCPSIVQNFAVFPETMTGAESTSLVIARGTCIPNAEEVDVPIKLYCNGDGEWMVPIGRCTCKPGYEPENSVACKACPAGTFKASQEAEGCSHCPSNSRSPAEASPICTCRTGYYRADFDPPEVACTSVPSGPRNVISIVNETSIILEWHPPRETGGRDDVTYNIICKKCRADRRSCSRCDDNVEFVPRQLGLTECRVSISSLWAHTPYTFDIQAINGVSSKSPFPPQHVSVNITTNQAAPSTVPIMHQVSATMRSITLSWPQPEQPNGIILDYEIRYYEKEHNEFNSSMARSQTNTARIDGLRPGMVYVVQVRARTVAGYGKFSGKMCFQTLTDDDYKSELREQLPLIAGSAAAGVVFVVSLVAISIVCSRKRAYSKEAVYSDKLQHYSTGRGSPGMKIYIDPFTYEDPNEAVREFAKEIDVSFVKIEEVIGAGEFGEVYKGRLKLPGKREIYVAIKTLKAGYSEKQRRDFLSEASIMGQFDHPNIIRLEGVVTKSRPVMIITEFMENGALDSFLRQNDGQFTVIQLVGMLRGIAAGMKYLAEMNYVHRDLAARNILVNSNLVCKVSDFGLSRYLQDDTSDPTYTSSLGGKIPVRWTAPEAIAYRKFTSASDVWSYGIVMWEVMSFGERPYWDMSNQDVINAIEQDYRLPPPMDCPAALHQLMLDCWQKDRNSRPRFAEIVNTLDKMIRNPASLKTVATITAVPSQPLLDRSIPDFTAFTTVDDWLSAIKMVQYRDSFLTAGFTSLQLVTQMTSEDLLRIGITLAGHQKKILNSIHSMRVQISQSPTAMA

Sequence | phosphorylation enrichment [1] | phosphorylation enrichment [2] | phosphorylation enrichment [3] | phosphorylation enrichment [4] | phosphorylation enrichment [5] | phosphorylation enrichment [6] | phosphorylation enrichment [7] | phosphorylation enrichment [8] | phosphorylation enrichment [9] | phosphorylation enrichment [10] | phosphorylation enrichment [11] | phosphorylation enrichment [12] | phosphorylation enrichment [13] | SH2 binding enrichment [14] | SH2 binding enrichment [15] | SH2 binding enrichment [16]
FQKDVYDIPPS [NEDD9_Y177_YF] | 1.01 | 0.681 | 2.01 | 0.384 | 0.559 | 0.502 | 0.681 | 2.59 | 2.69 | 0.629 | 7.04 | 0.662 | 2.62 | 0.871 | 0.745 | 0.466
FRAVKYLQMVG [AVPR2_Y117_C112Y_YF] | 0.889 | 0.509 | 0.393 | 0.387 | 0.518 | 0.366 | 1.26 | 0.397 | 0.319 | 0.902 | 0.366 | 0.629 | 0.496 | 0.96 | 3.15 | 0.552
FRKNTYNVKST [SYNE2_Y575_I574T_YF] | 0.466 | 0.425 | 0.333 | 0.352 | 0.366 | 0.375 | 0.578 | 0.426 | 0.402 | 0.402 | 0.473 | 0.609 | 0.437 | 1.27 | 0.976 | 0.679
FRVDCYKNFVA [FHL1_Y213_C209R_YF] | 1.23 | 0.783 | 0.68 | 0.542 | 0.956 | 0.58 | 1.49 | 0.566 | 0.511 | 1.11 | 0.496 | 0.979 | 0.502 | 0.993 | 0.703 | 0.656
FSEVRYVKEPF [HIPK4_Y170_YF] | 0.748 | 0.403 | 0.527 | 0.586 | 0.884 | 0.505 | 0.831 | 0.513 | 0.483 | 0.584 | 0.414 | 0.676 | 0.44 | 1.03 | 0.783 | 0.487
FSKTQYNQVPR [CXADR_Y318_S323R_YF] | 0.482 | 0.409 | 0.361 | 0.312 | 0.447 | 0.367 | 0.502 | 0.437 | 0.457 | 0.491 | 0.428 | 0.6 | 0.484 | 1.16 | 0.899 | 0.64
FSMGCYEISLE [HMGCL_Y198_G203E_YF] | 2.14 | 0.913 | 0.751 | 0.541 | 0.973 | 1.14 | 1.53 | 0.898 | 0.758 | 1.31 | 0.623 | 1.2 | 1.51 | 0.879 | 0.7 | 0.347
FSQQTYCRVSN [ABCD1_Y180_Y181C] | 0.875 | 3.39 | 2.1 | 0.538 | 0.644 | 0.558 | 0.981 | 0.557 | 1.34 | 0.764 | 0.745 | 0.76 | 0.881 | 0.817 | 0.688 | 1.02
FSQQTYYRVSN [ABCD1_Y180] | 0.831 | 1.83 | 1.06 | 6.2 | 4.51 | 0.392 | 0.756 | 1.18 | 3.2 | 6.78 | 2.85 | 0.72 | 3.18 | 0.86 | 0.672 | 0.82
FTFTSYFMHWV [IGHV1-46_Y51_YF] | 1.16 | 0.437 | 0.648 | 0.5 | 0.765 | 0.495 | 1.13 | 0.474 | 0.451 | 2.37 | 0.391 | 1.05 | 0.608 | 1.71 | 1.19 | 1.03
FVFSFYHAFSG [ACTN4_Y265_S262F_YF] | 0.963 | 0.808 | 0.812 | 0.492 | 0.693 | 0.455 | 1.1 | 0.505 | 0.525 | 1.25 | 1.6 | 0.994 | 0.714 | 1.55 | 1.31 | 1.04
FVGGFYGGCNE [CTSC_Y352_YF] | 1.22 | 0.696 | 0.752 | 0.632 | 0.918 | 0.941 | 1.42 | 0.666 | 1.02 | 1.27 | 0.516 | 0.86 | 0.784 | 0.895 | 0.563 | 0.589
FVSIVYNDSGE [TSC2_Y1650] | 0.951 | 0.509 | 0.702 | 0.559 | 0.725 | 0.52 | 0.993 | 0.596 | 0.611 | 0.942 | 0.571 | 0.647 | 0.516 | 1.2 | 1.01 | 0.705
GADDSYYTARS [ZAP70_Y492] | 1 | 0.488 | 0.517 | 0.551 | 0.652 | 0.482 | 1.05 | 0.594 | 0.737 | 1 | 0.43 | 0.938 | 0.742 | 0.816 | 0.447 | 0.556
GARGRYVMGGP [TNK1_Y277] | 0.7 | 0.504 | 0.389 | 0.481 | 0.419 | 0.405 | 0.555 | 0.332 | 0.379 | 0.457 | 0.546 | 0.376 | 0.421 | 0.512 | 0.548 | 0.435
GAVDTYCRHNY [HLA-DRB1_Y107_A102G] | 0.724 | 0.475 | 0.418 | 0.531 | 0.594 | 0.374 | 0.763 | 0.443 | 0.475 | 0.708 | 0.443 | 0.755 | 0.575 | 0.827 | 0.721 | 0.518
GCRSKSVGLWG [KCNQ1_Y184_Y184S] | 0.51 | 0.38 | 0.488 | 0.429 | 0.382 | 0.365 | 0.62 | 0.344 | 0.423 | 0.539 | 0.389 | 0.477 | 0.436 | 0.875 | 0.899 | 0.531

Sequence | phosphorylation enrichment [1] | phosphorylation enrichment [2] | phosphorylation enrichment [3] | phosphorylation enrichment [4] | phosphorylation enrichment [5] | phosphorylation enrichment [6] | phosphorylation enrichment [7] | phosphorylation enrichment [8] | phosphorylation enrichment [9] | phosphorylation enrichment [10] | phosphorylation enrichment [11] | phosphorylation enrichment [12] | phosphorylation enrichment [13] | SH2 binding enrichment [14] | SH2 binding enrichment [15] | SH2 binding enrichment [16]
GCRSKYVGLWR [KCNQ1_Y184_G189R] | 0.638 | 0.411 | 0.325 | 0.382 | 0.591 | 0.42 | 0.519 | 0.401 | 0.36 | 0.395 | 0.394 | 0.409 | 0.365 | 1.18 | 0.744 | 0.802
GDAMLYYPSVS [GPR143_Y177_A173D] | 0.95 | 0.763 | 0.702 | 5.91 | 4.78 | 1.27 | 0.736 | 0.957 | 2.77 | 3.08 | 4.84 | 1.36 | 2.22 | 0.825 | 0.759 | 0.773
GDPTEYFSTAI [IGSF22_Y501_YF] | 1.54 | 0.634 | 0.645 | 0.7 | 0.936 | 0.433 | 1.08 | 0.525 | 0.498 | 1.15 | 0.439 | 0.745 | 0.502 | 0.788 | 0.583 | 0.522
GDPTEYYITAI [IGSF22_Y501_S503I] | 1.95 | 0.594 | 0.647 | 2.91 | 2.6 | 0.611 | 1.1 | 0.598 | 0.562 | 1.38 | 0.399 | 0.809 | 0.703 | 0.647 | 0.478 | 0.374
GDPTEYYSTAI [IGSF22_Y501] | 1.77 | 0.598 | 0.555 | 2.04 | 1.74 | 0.738 | 0.873 | 0.599 | 0.809 | 0.954 | 0.497 | 0.636 | 0.87 | 0.959 | 0.734 | 0.619
GDSVQYNRTTD [MLPH_Y454_P451S] | 0.612 | 0.486 | 0.38 | 0.487 | 0.498 | 0.457 | 0.999 | 0.469 | 0.498 | 0.728 | 0.419 | 0.548 | 0.422 | 0.718 | 0.704 | 0.481
GEDEPYAEPYA [APBA1_Y183_S184A] | 1.59 | 0.685 | 0.694 | 0.608 | 0.799 | 0.525 | 1.53 | 0.609 | 0.544 | 1.33 | 0.636 | 0.915 | 0.639 | 1.1 | 0.885 | 0.821
GEEIKYMLWLL [OTC_Y55_S60L] | 1 | 0.722 | 0.554 | 0.752 | 0.975 | 1.88 | 1.55 | 0.5 | 0.663 | 0.912 | 1.58 | 0.77 | 0.544 | 1.16 | 1.01 | 0.716
GEFHVYRHLRR [PRKRIP1_Y82] | 1.3 | 0.43 | 0.465 | 0.57 | 0.581 | 0.4 | 0.863 | 0.484 | 0.57 | 0.896 | 0.494 | 0.601 | 0.518 | 0.601 | 0.358 | 0.501
GEIQEYGAPSD [ABCC1_Y1508] | 1.07 | 0.493 | 0.544 | 0.523 | 0.662 | 0.481 | 1.05 | 0.506 | 0.505 | 0.891 | 0.476 | 0.757 | 0.438 | 0.745 | 0.648 | 0.507
GFCSWYRGWAP [TIMP3_Y195_YF] | 1.27 | 0.763 | 0.597 | 0.514 | 0.813 | 0.593 | 1.27 | 0.472 | 0.497 | 1.2 | 0.498 | 0.912 | 0.773 | 0.953 | 0.968 | 0.609
GFIISYREEEQ | 1.41 | 0.495 | 0.5 | 0.478 | 0.729 | 0.644 | 1.27 | 0.488 | 0.456 | 1.34 | 0.313 | 0.598 | 0.399 | 0.672 | 0.633 | 0.581
GFITSYREEEQ | 1.19 | 0.63 | 0.775 | 0.468 | 0.631 | 0.488 | 1.14 | 0.494 | 0.517 | 1.04 | 0.489 | 0.769 | 0.48 | 0.681 | 0.722 | 0.502
GGDGSYVSVPL [TNNI3K_Y425_S430L] | 0.692 | 0.414 | 0.509 | 0.5 | 0.573 | 0.486 | 0.599 | 0.406 | 0.437 | 0.558 | 0.474 | 0.471 | 0.38 | 0.887 | 0.682 | 0.631
GGEAIYAAPFA [Abl_opt_1995] | 4 | 20.2 | 27.9 | 2.48 | 2.05 | 20.5 | 1.11 | 13.1 | 12.7 | 0.747 | 13.5 | 35.6 | 9.05 | 0.778 | 0.416 | 0.486
GGGMIYPLDLF | 0.913 | 0.527 | 0.496 | 0.503 | 0.637 | 0.534 | 1.02 | 0.6 | 0.551 | 0.941 | 0.688 | 0.804 | 0.515 | 0.959 | 0.562 | 0.556

From the supplement of paper PMC10065799, “High-throughput profiling of sequence recognition by tyrosine kinases and SH2 domains using bacterial peptide display” (eLife, 2023)
